According to the Human Domainome abundance scans (Beltran et al. 2025):
± gives the uncertainty stated by the source.

B1: Calcium-binding protein 2, residues 155 to 219; numbered along this chain, Q9NPB3 (parent)
chain: RELRDAFREFDTNGDGRISVGELRAALKALLGERLSQREVDEILQDVDLNGDGLVDFEEFVRMMS

Variants of: B1
Assay: abundance fitness (aPCA) (normalised: wild type 0, dead -1); higher = more abundant; growth selection in yeast, the domain comes from the species named
Conditions: Homo sapiens

| Variant | abundance fitness |
| --- | --- |
| E2A | -0.509 ± 0.084 |
| E2C | -0.472 ± 0.19 |
| E2D | -0.677 ± 0.37 |
| E2G | -0.15 ± 0.096 |
| E2H | -0.086 ± 0.13 |
| E2K | -0.158 ± 0.1 |
| E2L | -0.612 ± 0.058 |
| E2P | -0.21 ± 0.076 |
| E2Q | -0.114 ± 0.064 |
| E2R | -0.128 ± 0.058 |
| E2S | -0.355 ± 0.13 |
| E2T | -0.093 ± 0.067 |
| E2V | -0.357 ± 0.091 |
| E2W | -0.344 ± 0.075 |
| E2Y | -0.306 ± 0.15 |
| L3A | -0.302 ± 0.064 |
| L3C | -1 ± 0.25 |
| L3D | -0.497 ± 0.17 |
| L3E | -0.274 ± 0.12 |
| L3F | -0.113 ± 0.2 |
| L3I | -0.095 ± 0.2 |
| L3M | 0.012 ± 0.068 |
| L3N | -0.345 ± 0.16 |
| L3P | -0.441 ± 0.11 |

| Variant | abundance fitness |
| --- | --- |
| L3Q | 0.018 ± 0.095 |
| L3R | -0.729 ± 0.073 |
| L3S | -0.473 ± 0.13 |
| L3T | -0.281 ± 0.081 |
| L3V | -0.15 ± 0.058 |
| L3W | -0.187 ± 0.1 |
| L3Y | -0.139 ± 0.17 |
| R4A | -0.28 ± 0.099 |
| R4D | -0.052 ± 0.15 |
| R4E | 0.217 ± 0.27 |
| R4F | -0.321 ± 0.16 |
| R4G | -0.255 ± 0.086 |
| R4H | -0.074 ± 0.1 |
| R4K | 0.064 ± 0.077 |
| R4L | -0.526 ± 0.069 |
| R4M | -0.144 ± 0.095 |
| R4N | -0.027 ± 0.12 |
| R4Q | -0.21 ± 0.11 |
| R4S | -0.276 ± 0.083 |
| R4T | -0.138 ± 0.097 |
| R4V | -0.107 ± 0.049 |
| R4Y | -0.544 ± 0.36 |
| D5A | -0.226 ± 0.049 |
| D5C | -0.178 ± 0.069 |

| Variant | abundance fitness |
| --- | --- |
| D5E | -0.054 ± 0.056 |
| D5F | -0.066 ± 0.078 |
| D5G | -0.318 ± 0.05 |
| D5H | -0.159 ± 0.062 |
| D5I | -0.219 ± 0.08 |
| D5L | -0.32 ± 0.042 |
| D5M | -0.171 ± 0.061 |
| D5N | -0.034 ± 0.059 |
| D5P | -0.665 ± 0.064 |
| D5Q | -0.007 ± 0.075 |
| D5R | -0.119 ± 0.038 |
| D5S | -0.382 ± 0.047 |
| D5T | 0.038 ± 0.058 |
| D5V | -0.19 ± 0.051 |
| D5W | -0.491 ± 0.071 |
| D5Y | -0.451 ± 0.087 |
| A6C | 0.085 ± 0.1 |
| A6D | -0.709 ± 0.2 |
| A6E | -0.076 ± 0.073 |
| A6G | -0.328 ± 0.048 |
| A6H | -0.479 ± 0.2 |
| A6K | 0.157 ± 0.088 |
| A6L | -0.008 ± 0.048 |
| A6N | 0.042 ± 0.21 |

| Variant | abundance fitness |
| --- | --- |
| A6P | -0.952 ± 0.1 |
| A6R | 0.089 ± 0.044 |
| A6S | -0.011 ± 0.087 |
| A6T | 0.173 ± 0.061 |
| A6V | 0.026 ± 0.06 |
| A6W | -0.111 ± 0.053 |
| F7C | -0.422 ± 0.1 |
| F7E | -0.841 ± 0.1 |
| F7G | -1.03 ± 0.058 |
| F7H | -1.18 ± 0.35 |
| F7I | -0.644 ± 0.12 |
| F7K | -1.12 ± 0.12 |
| F7M | -0.33 ± 0.072 |
| F7N | -1.44 ± 0.4 |
| F7P | -0.997 ± 0.11 |
| F7Q | -0.803 ± 0.13 |
| F7R | -0.995 ± 0.062 |
| F7T | -0.713 ± 0.096 |
| F7V | -0.891 ± 0.078 |
| F7W | -0.142 ± 0.053 |
| F7Y | -0.259 ± 0.12 |
| R8A | -0.04 ± 0.058 |
| R8C | -0.141 ± 0.23 |
| R8D | 0.045 ± 0.12 |

| Variant | abundance fitness |
| --- | --- |
| R8E | -0.004 ± 0.1 |
| R8G | -0.238 ± 0.096 |
| R8I | -0.156 ± 0.14 |
| R8K | -0.068 ± 0.15 |
| R8M | -0.043 ± 0.083 |
| R8N | -0.023 ± 0.19 |
| R8P | -0.573 ± 0.06 |
| R8Q | -0.1 ± 0.087 |
| R8S | 0.01 ± 0.084 |
| R8T | 0.031 ± 0.11 |
| R8V | -0.162 ± 0.054 |
| R8Y | -0.153 ± 0.23 |
| E9A | -0.189 ± 0.071 |
| E9D | 0.003 ± 0.12 |
| E9F | -0.294 ± 0.16 |
| E9G | -0.016 ± 0.095 |
| E9H | -0.429 ± 0.37 |
| E9L | -0.201 ± 0.051 |
| E9M | -0.135 ± 0.092 |
| E9P | -0.451 ± 0.058 |
| E9Q | -0.032 ± 0.068 |
| E9R | 0.085 ± 0.048 |
| E9S | -0.133 ± 0.046 |
| E9T | 0.039 ± 0.074 |

| Variant | abundance fitness |
| --- | --- |
| E9V | -0.03 ± 0.083 |
| E9W | -0.416 ± 0.069 |
| E9Y | -0.244 ± 0.22 |
| F10A | 0.11 ± 0.071 |
| F10C | -0.143 ± 0.079 |
| F10D | -1.13 ± 0.17 |
| F10E | -0.445 ± 0.059 |
| F10G | -0.417 ± 0.081 |
| F10H | 0.09 ± 0.065 |
| F10I | -0.038 ± 0.11 |
| F10K | -0.155 ± 0.12 |
| F10L | -0.449 ± 0.062 |
| F10M | -0.426 ± 0.12 |
| F10P | -0.864 ± 0.079 |
| F10Q | 0.156 ± 0.083 |
| F10R | -0.1 ± 0.059 |
| F10S | -0.148 ± 0.074 |
| F10T | -0.144 ± 0.096 |
| F10V | -0.048 ± 0.065 |
| F10W | -0.076 ± 0.11 |
| D11A | -0.677 ± 0.057 |
| D11C | -0.546 ± 0.11 |
| D11E | -0.972 ± 0.097 |
| D11H | -1.17 ± 0.26 |

| Variant | abundance fitness |
| --- | --- |
| D11K | -1.16 ± 0.26 |
| D11L | -0.937 ± 0.099 |
| D11M | -1.17 ± 0.21 |
| D11P | -0.992 ± 0.13 |
| D11Q | -0.434 ± 0.099 |
| D11R | -1.18 ± 0.11 |
| D11S | -0.633 ± 0.061 |
| D11T | -0.769 ± 0.099 |
| D11V | -1.02 ± 0.092 |
| D11W | -0.631 ± 0.095 |
| D11Y | -0.651 ± 0.3 |
| T12C | -0.148 ± 0.1 |
| T12D | -0.42 ± 0.13 |
| T12E | -0.087 ± 0.13 |
| T12F | -0.493 ± 0.18 |
| T12G | -0.04 ± 0.054 |
| T12H | 0.039 ± 0.23 |
| T12K | -0.03 ± 0.15 |
| T12L | -0.279 ± 0.07 |
| T12M | -0.349 ± 0.087 |
| T12N | 0.007 ± 0.22 |
| T12P | -0.695 ± 0.12 |
| T12Q | -0.148 ± 0.13 |
